Data: article PMC7948595, “1,6-Hexanediol, commonly used to dissolve liquid–liquid phase separated condensates, directly impairs kinase and phosphatase activities” (The Journal of Biological Chemistry, 2021)

Biological target: T1, GST-Cdk7 (2–346) (human, UniProt P50613 2-346)
T1 construct: Cdk7, human, residues 2-346
Test: pull-down; 10 µg of purified CDK–cyclin complex immobilised by its GST-tagged subunit on GSH 4B sepharose beads in 100 µl PBS; incubated 1 h in PBS or PBS with 5% 1,6-hexanediol; washed three times; eluted in SDS-sample buffer; Coomassie-stained SDS-PAGE
Conditions: both partners purified

T1 sequence (P50613 2-346): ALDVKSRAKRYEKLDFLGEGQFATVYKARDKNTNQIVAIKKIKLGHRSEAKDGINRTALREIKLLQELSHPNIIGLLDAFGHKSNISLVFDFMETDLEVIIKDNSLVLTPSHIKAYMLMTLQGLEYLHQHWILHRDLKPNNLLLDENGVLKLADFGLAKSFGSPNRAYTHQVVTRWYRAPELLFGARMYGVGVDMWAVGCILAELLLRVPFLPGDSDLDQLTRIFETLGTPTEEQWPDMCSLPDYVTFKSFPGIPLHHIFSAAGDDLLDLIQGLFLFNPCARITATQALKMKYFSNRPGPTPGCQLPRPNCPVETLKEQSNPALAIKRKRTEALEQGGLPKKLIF

binding result: binds
B1: Cyclin H (1–323) (natural protein, human, UniProt P51946 1-323, looked up)
chain: MYHNSSQKRHWTFSSEEQLARLRADANRKFRCKAVANGKVLPNDPVFLEPHEEMTLCKYYEKRLLEFCSVFKPAMPRSVVGTACMYFKRFYLNNSVMEYHPRIIMLTCAFLACKVDEFNVSSPQFVGNLRESPLGQEKALEQILEYELLLIQQLNFHLIVHNPYRPFEGFLIDLKTRYPILENPEILRKTADDFLNRIALTDAYLLYTPSQIALTAILSSASRAGITMESYLSESLMLKENRTCLSQLLDIMKSMRNLVKKYEPPRSEEVAVLKQKLERCHSAELALNVITKKRKGYEDDDYVSKKSKHEEEEWTDDDLVESL
notes: Cyclin H, human, residues 1-323; also called CycH
